Measurements from article doi:10.1101/2023.06.06.543845.

Biological target: Mycobacterium thermoresistibile NrdI (Mycobacterium thermoresistibile)
Experiment: cryo-EM structure

Substance: Mycobacterium thermoresistibile NrdF2 (enzyme)
- stoichiometry N (NrdF2 per NrdI): 2
